{"source": "paper PMC6100724", "about": "“Proteome‐wide analysis of phospho‐regulated PDZ domain interactions” (Molecular Systems Biology, 2018)", "binders": {"B1": {"name": "Scribble PDZ1 (His-tagged, aa 719-829) (domain or fragment)", "chain": "not shown", "notes": "human Scribble, PDZ1, aa 719-829, in pETM-11; Used for MST and ITC; removal of the His tag is told only for the NMR samples; also called Scribble PDZ1 wild type; source: E. coli BL21 Gold (DE3), purified (Ni2+ Sepharose), dialysed"}, "B2": {"name": "SHANK1 PDZ (aa 652-761, His-GST tag removed) (domain or fragment, human, UniProt Q9Y566 652-761, looked up)", "chain": "GPGSDYIIKEKTVLLQKKDSEGFGFVLRGAKAQTPIEEFTPTPAFPALQYLESVDEGGVAWRAGLRMGDFLIEVNGQNVVKVGHRQVVNMIRQGGNTLMVKVVMVTRHPD", "notes": "human Shank1, PDZ, aa 652-761, in pETM-33; also called untagged SHANK1 PDZ; source: E. coli BL21 Gold (DE3), purified (Ni2+ Sepharose), tag removed with HRV3C protease"}, "B3": {"name": "DLG1 PDZ2 (His-tagged, aa 311-407) (domain or fragment, human, UniProt Q12959 311-407, looked up)", "chain": "KPVSEKIMEIKLIKGPKGLGFSIAGGVGNQHIPGDNSIYVTKIIEGGAAHKDGKLQIGDKLLAVNNVCLEEVTHEEAVTALKNTSDFVYLKVAKPTS", "notes": "human DLG1, PDZ2, aa 311-407, in a modified pRSET vector; also called DLG PDZ2; source: E. coli BL21 Gold (DE3), purified (Ni2+ Sepharose), dialysed"}, "B4": {"name": "MKRLTpSTRL (RPS6KA2 peptide, phosphorylated at p-3, unlabelled) (peptide)", "peptide": "MKRLT[pS]TRL", "notes": "C-terminal peptide of human RPS6KA2; also called phospho-RPS6KA2; pRPS6KA2; source: synthetic peptide, bought: GeneCust"}, "B5": {"name": "RPS6KA2 peptide MKRLTpSTRL (p-3 phosphorylated) (peptide)", "peptide": "MKRLT[pS]TRL", "notes": "C-terminal nine residues of RPS6KA2, human; also called pRPS6KA2; phospho-RPS6KA2; source: synthetic peptide, bought: GeneCust"}}, "conditions_in_all_cases": "both partners purified", "key": {"[1]": {"biological_target": "T1, FITC-HTNETpSL (MCC peptide, phosphorylated at p-1) (human)", "T1 construct": "C-terminal peptide of human MCC; also called pMCC; source: synthetic peptide, bought: GeneCust", "T1 peptide": "{FITC}-HTNET[pS]L", "test": "MST; FITC-labeled peptide fixed at 25-50 nM, protein (Scribble PDZ1 or DLG1 PDZ2) in a 1:1 dilution series; 50 mM Tris-HCl pH 7.4, 0.1% Tween-20; thermophoresis and T-Jump signal; n = 3"}, "[2]": {"biological_target": "T2, FITC-KRpSFIESNV (TANC1 peptide, phosphorylated at p-6) (human)", "T2 construct": "C-terminal peptide of human TANC1; also called TANC1 phosphopeptide; source: synthetic peptide, bought: GeneCust", "T2 peptide": "{FITC}-KR[pS]FIESNV", "test": "MST; FITC-labeled peptide fixed at 25-50 nM, protein (Scribble PDZ1 or DLG1 PDZ2) in a 1:1 dilution series; 50 mM Tris-HCl pH 7.4, 0.1% Tween-20; thermophoresis and T-Jump signal; n = 3"}, "[3]": {"biological_target": "T3, FITC-RLTpSTRL (RPS6KA2 peptide, phosphorylated at p-3) (human)", "T3 construct": "C-terminal peptide of human RPS6KA2; source: synthetic peptide, bought: GeneCust", "T3 peptide": "{FITC}-RLT[pS]TRL", "test": "MST; FITC-labeled peptide fixed at 25-50 nM, protein (Scribble PDZ1 or DLG1 PDZ2) in a 1:1 dilution series; 50 mM Tris-HCl pH 7.4, 0.1% Tween-20; thermophoresis and T-Jump signal; n = 3"}, "[4]": {"biological_target": "T3, FITC-RLTpSTRL (RPS6KA2 peptide, …)", "test": "MST; FITC-labeled peptide fixed at 25-50 nM, untagged SHANK1 PDZ in a dilution series; PBS, 10 mM MgCl2, 0.05% Tween-20; n = 3"}, "[5]": {"biological_target": "T4, FITC-KREFIESNV (TANC1 peptide, phosphomimetic at p-6) (human, Ser to Glu at p-6 (stands in the printed letters))", "T4 construct": "also called phosphomimetic TANC1; source: synthetic peptide, bought: GeneCust", "T4 peptide": "{FITC}-KREFIESNV", "test": "MST; FITC-labeled peptide fixed at 25-50 nM, protein (Scribble PDZ1 or DLG1 PDZ2) in a 1:1 dilution series; 50 mM Tris-HCl pH 7.4, 0.1% Tween-20; thermophoresis and T-Jump signal; n = 3"}, "[6]": {"biological_target": "T5, FITC-RLTETRL (RPS6KA2 peptide, phosphomimetic at p-3) (human, S730E (stands in the printed letters))", "T5 construct": "also called phosphomimetic RPS6KA2; source: synthetic peptide, bought: GeneCust", "T5 peptide": "{FITC}-RLTETRL", "test": "MST; FITC-labeled peptide fixed at 25-50 nM, protein (Scribble PDZ1 or DLG1 PDZ2) in a 1:1 dilution series; 50 mM Tris-HCl pH 7.4, 0.1% Tween-20; thermophoresis and T-Jump signal; n = 3"}, "[7]": {"biological_target": "T6, Scribble PDZ1 R762A/A743R (human, UniProt Q14160 719-829, R762A | A743R)", "T6 construct": "human Scribble, PDZ1, aa 719-829, A743R introduced in the background of R762A; also called R762A/A743R mutant; source: E. coli BL21 Gold (DE3), purified (Ni2+ Sepharose), dialysed", "T6 sequence (Q14160 719-829 A743R/R762A)": "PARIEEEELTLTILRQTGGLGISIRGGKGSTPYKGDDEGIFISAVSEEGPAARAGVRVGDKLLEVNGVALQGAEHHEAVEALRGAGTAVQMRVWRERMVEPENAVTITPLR", "test": "ITC; iTC200, 25°C, 20 mM HEPES pH 7.4; protein 50-100 μM in the cell, peptide 0.64-3 mM in the syringe; single-site fit, stoichiometry fixed to 0.8-1.1; n = 3"}, "[8]": {"biological_target": "T7, Scribble PDZ1 R762A (human, UniProt Q14160 719-829, R762A)", "T7 construct": "human Scribble, PDZ1, aa 719-829, in pETM-11, point mutant; Used for ITC; also called mutational background; source: E. coli BL21 Gold (DE3), purified (Ni2+ Sepharose), dialysed", "test": "ITC; iTC200, 25°C, 20 mM HEPES pH 7.4; protein 50-100 μM in the cell, peptide 0.64-3 mM in the syringe; single-site fit, stoichiometry fixed to 0.8-1.1; n = 3"}, "[9]": {"biological_target": "B1", "test": "ITC; iTC200, 25°C, 20 mM HEPES pH 7.4; protein 50-100 μM in the cell, peptide 0.64-3 mM in the syringe; single-site fit, stoichiometry fixed to 0.8-1.1; n = 3"}, "[10]": {"biological_target": "T8, Scribble PDZ1 R801A (human, UniProt Q14160 719-829, R801A)", "T8 construct": "Scribble, human, PDZ1, aa 719-829 in pETM-11, with R801A (text, methods and primers); source: E. coli BL21 Gold (DE3), purified (Ni2+ Sepharose)", "T8 sequence (Q14160 719-829 R801A)": "as the sequence (Q14160 719-829 A743R/R762A) above, with R25A, A44R, R83A counted along it", "test": "ITC; iTC200, 25°C, 20 mM HEPES pH 7.4; protein 50-100 µM in the cell, 0.64-3 mM peptide in the syringe; single-site fit, stoichiometry fixed to 0.8-1.1; triplicate"}, "[11]": {"biological_target": "T9, Scribble PDZ1 R762A/A743R (human, UniProt Q14160 719-829, A743R | R762A)", "T9 construct": "Scribble, human, PDZ1, aa 719-829 in pETM-11, with R762A and A743R; also called R762A/A743R mutant; source: E. coli BL21 Gold (DE3), purified (Ni2+ Sepharose)", "T9 sequence (Q14160 719-829 A743R/R762A)": "as the sequence (Q14160 719-829 A743R/R762A) above", "test": "ITC; iTC200, 25°C, 20 mM HEPES pH 7.4; protein 50-100 µM in the cell, 0.64-3 mM peptide in the syringe; single-site fit, stoichiometry fixed to 0.8-1.1; triplicate"}, "[12]": {"biological_target": "T10, Scribble PDZ1 A743R (human, UniProt Q14160 719-829, A743R)", "T10 construct": "Scribble, human, PDZ1, aa 719-829 in pETM-11, with A743R; the text describes A743R only in the R762A background; source: E. coli BL21 Gold (DE3), purified (Ni2+ Sepharose)", "T10 sequence (Q14160 719-829 A743R)": "as the sequence (Q14160 719-829 A743R/R762A) above, with A44R counted along it", "test": "ITC; iTC200, 25°C, 20 mM HEPES pH 7.4; protein 50-100 µM in the cell, 0.64-3 mM peptide in the syringe; single-site fit, stoichiometry fixed to 0.8-1.1; triplicate"}, "[13]": {"biological_target": "T11, Scribble PDZ1 R762A (human, UniProt Q14160 719-829, R762A)", "T11 construct": "Scribble, human, PDZ1, aa 719-829 in pETM-11, with R762A; source: E. coli BL21 Gold (DE3), purified (Ni2+ Sepharose)", "test": "ITC; iTC200, 25°C, 20 mM HEPES pH 7.4; protein 50-100 µM in the cell, 0.64-3 mM peptide in the syringe; single-site fit, stoichiometry fixed to 0.8-1.1; triplicate"}, "[14]": {"biological_target": "T12, Scribble PDZ1 K746A (human, UniProt Q14160 719-829, K746A)", "T12 construct": "Scribble, human, PDZ1, aa 719-829 in pETM-11, with K746A; source: E. coli BL21 Gold (DE3), purified (Ni2+ Sepharose)", "T12 sequence (Q14160 719-829 K746A)": "as the sequence (Q14160 719-829 A743R/R762A) above, with R25A, K28A, A44R counted along it", "test": "ITC; iTC200, 25°C, 20 mM HEPES pH 7.4; protein 50-100 µM in the cell, 0.64-3 mM peptide in the syringe; single-site fit, stoichiometry fixed to 0.8-1.1; triplicate"}, "[15]": {"biological_target": "T13, Scribble PDZ1 (human, aa 719-829) (human, UniProt Q14160 719-829)", "T13 construct": "Scribble, human, PDZ1, aa 719-829 in pETM-11; The His tag was cleaved only for the NMR samples; nothing is said of cleavage for MST and ITC; also called Scribble PDZ1 wild type; source: E. coli BL21 Gold (DE3), purified (Ni2+ Sepharose)", "T13 sequence (Q14160 719-829)": "as the sequence (Q14160 719-829 A743R/R762A) above, with R25A, A44R counted along it", "test": "ITC; iTC200, 25°C, 20 mM HEPES pH 7.4; protein 50-100 µM in the cell, 0.64-3 mM peptide in the syringe; single-site fit, stoichiometry fixed to 0.8-1.1; triplicate"}}, "note": "Square brackets hold non-standard residues; d marks the D form. Ends that are not written are not given here. * marks the point of attachment. FITC = O=C1OC2(c3ccc(O)cc3Oc3cc(O)ccc32)c2ccc(NC(=S)*)cc21; pS = N[C@@H](COP(=O)(O)O)C(=O)O"}
{"binder": "B1", "values": [{"measurement": "fold higher affinity than for the unphosphorylated peptide", "setting": "[1]", "value": 3, "unit": "fold"}, {"measurement": "fold lower affinity than for the unphosphorylated peptide", "setting": "[2]", "value": 2, "unit": "fold"}, {"measurement": "fold higher affinity than for the unphosphorylated peptide", "setting": "[3]", "value": 5, "unit": "fold"}]}
{"binder": "B2", "values": [{"measurement": "fold lower affinity than for the unphosphorylated peptide", "setting": "[4]", "value": 3.6, "unit": "fold"}]}
{"binder": "B3", "values": [{"measurement": "fold lower affinity than for the unphosphorylated peptide", "setting": "[5]", "value": 2.4, "unit": "fold"}, {"measurement": "fold lower affinity than for the unphosphorylated peptide", "setting": "[2]", "value": 2.9, "unit": "fold"}, {"measurement": "fold higher affinity than for the unphosphorylated peptide", "setting": "[6]", "value": 1.3, "unit": "fold"}]}
{"binder": "B4", "values": [{"measurement": "binding result", "setting": "[7]", "value": "binds"}, {"measurement": "fold weaker affinity than the wild type", "setting": "[8]", "value": 6, "unit": "fold"}, {"measurement": "fold higher affinity than for the unphosphorylated peptide", "setting": "[9]", "value": 5, "unit": "fold"}]}
{"binder": "B5", "values": [{"measurement": "Kd", "setting": "[10]", "value": 17, "unit": "µM"}, {"measurement": "Kd", "setting": "[11]", "value": 15, "unit": "µM"}, {"measurement": "Kd", "setting": "[12]", "value": 2.8, "unit": "µM"}, {"measurement": "Kd", "setting": "[13]", "value": 25, "unit": "µM"}, {"measurement": "Kd", "setting": "[14]", "value": 10, "unit": "µM"}, {"measurement": "Kd", "setting": "[15]", "value": 4, "unit": "µM"}]}
